Residue numbers refer to the chain shown, from its start.
T1: human IL-12Rβ2 expressed on cells (human, UniProt Q99665 24-862)
T1 sequence: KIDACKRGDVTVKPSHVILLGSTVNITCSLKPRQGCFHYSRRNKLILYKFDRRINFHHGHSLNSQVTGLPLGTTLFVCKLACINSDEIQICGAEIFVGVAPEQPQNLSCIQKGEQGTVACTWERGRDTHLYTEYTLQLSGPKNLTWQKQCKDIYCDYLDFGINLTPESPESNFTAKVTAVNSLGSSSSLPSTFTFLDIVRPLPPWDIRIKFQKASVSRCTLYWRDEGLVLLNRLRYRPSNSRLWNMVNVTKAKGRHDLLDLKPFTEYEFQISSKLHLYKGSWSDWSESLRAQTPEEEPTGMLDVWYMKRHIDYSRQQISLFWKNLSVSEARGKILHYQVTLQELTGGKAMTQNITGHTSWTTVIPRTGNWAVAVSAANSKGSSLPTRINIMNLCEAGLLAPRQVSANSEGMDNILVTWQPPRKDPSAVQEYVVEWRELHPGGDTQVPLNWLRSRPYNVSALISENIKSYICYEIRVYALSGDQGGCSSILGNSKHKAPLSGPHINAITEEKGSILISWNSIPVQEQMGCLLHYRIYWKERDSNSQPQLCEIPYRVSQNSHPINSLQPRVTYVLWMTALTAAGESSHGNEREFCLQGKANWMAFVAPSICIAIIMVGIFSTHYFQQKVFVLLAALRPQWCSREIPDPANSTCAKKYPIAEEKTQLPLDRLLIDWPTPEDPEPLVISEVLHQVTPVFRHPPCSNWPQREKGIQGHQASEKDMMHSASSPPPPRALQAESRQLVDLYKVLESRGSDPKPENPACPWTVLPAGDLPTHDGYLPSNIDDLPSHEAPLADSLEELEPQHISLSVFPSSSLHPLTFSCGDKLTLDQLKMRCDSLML

T2: biotinylated recombinant human IL-12Rβ2 (human, UniProt Q99665 24-622, random biotinylated)
T2 construct: Recombinant protein produced in-house; also called hIL-12RB2; human IL-12RB2
T2 sequence: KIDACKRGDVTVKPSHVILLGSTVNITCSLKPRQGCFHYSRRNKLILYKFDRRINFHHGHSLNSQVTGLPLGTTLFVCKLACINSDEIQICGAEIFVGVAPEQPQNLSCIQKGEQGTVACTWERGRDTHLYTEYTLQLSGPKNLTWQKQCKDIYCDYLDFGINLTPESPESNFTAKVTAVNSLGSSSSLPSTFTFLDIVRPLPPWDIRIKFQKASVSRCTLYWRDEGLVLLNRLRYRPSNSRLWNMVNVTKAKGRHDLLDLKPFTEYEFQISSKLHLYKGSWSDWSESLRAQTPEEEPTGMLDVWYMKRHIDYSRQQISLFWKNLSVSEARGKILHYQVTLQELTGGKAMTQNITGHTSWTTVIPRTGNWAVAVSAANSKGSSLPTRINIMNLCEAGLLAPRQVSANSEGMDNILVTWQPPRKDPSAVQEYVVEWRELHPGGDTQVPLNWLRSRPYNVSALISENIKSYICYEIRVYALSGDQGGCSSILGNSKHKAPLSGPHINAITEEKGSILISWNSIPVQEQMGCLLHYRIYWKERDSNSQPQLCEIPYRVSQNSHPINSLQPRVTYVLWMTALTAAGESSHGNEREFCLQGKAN

T3: biotinylated recombinant mouse IL-12Rβ2 (mouse, UniProt P97378 24-637, random biotinylated)
T3 construct: Recombinant protein produced in-house; also called mIL-12RB2; mouse IL-12RB2
T3 sequence: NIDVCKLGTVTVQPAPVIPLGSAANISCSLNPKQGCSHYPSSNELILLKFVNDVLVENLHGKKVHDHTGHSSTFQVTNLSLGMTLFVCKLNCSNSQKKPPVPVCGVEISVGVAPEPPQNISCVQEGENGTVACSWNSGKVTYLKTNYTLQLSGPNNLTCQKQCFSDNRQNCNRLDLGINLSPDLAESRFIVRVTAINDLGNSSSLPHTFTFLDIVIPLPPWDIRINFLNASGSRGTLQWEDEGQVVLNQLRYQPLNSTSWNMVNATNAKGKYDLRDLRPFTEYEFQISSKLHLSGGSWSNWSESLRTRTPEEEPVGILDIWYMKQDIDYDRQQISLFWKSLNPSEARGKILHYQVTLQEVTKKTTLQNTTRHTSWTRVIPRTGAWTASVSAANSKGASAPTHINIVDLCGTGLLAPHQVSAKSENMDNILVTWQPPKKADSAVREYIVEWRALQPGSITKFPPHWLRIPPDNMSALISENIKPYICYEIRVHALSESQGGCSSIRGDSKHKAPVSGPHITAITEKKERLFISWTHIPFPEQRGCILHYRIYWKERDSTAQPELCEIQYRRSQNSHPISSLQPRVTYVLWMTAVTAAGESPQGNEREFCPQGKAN

B1: 20378-FcDE (Fc fusion)
VHH-Fc chain: QVQLQESGGGLVQAGDSLRLSCTASGHTFSRYTTIGWFRQAPGKDREFVAAIRWSGDITDYADAVKGRFTISRDNVKNTVYLQMNSLNPEDTAVYYCARGYSEYGVLSRNRGLYAYWGQGTQVTVSSAPELLGGPDVFLFPPKPKDTLMISRTPEVTCVVVDVSHEDPEVKFNWYVDGVEVHNAKTKPREEQYNSTYRVVSVLTVLHQDWLNGKEYKCKVSNKALPAPEEKTISKAKGQPREPQVYTLPPSRDELTKNQVSLTCLVKGFYPSDIAVEWESNGQPENNYKTTPPVLDSDGSFFLYSKLTVDKSRWQQGNVFSCSVMHEALHNHYTQKSLSLSPGK
B2: 20394-FcDE (Fc fusion)
VHH-Fc chain: QVQLQESGGGLVQAGDSLRLSCAASGRTFDTYIVGWFRQAPGKEREFVSALSWSDDTTIRDDSLRGRFTISRDNAKNTVYLLMNSLKPEDTAVYYCAAKAKPPAATWSSYRNREWYDYWGQGTQVTVSSAPELLGGPDVFLFPPKPKDTLMISRTPEVTCVVVDVSHEDPEVKFNWYVDGVEVHNAKTKPREEQYNSTYRVVSVLTVLHQDWLNGKEYKCKVSNKALPAPEEKTISKAKGQPREPQVYTLPPSRDELTKNQVSLTCLVKGFYPSDIAVEWESNGQPENNYKTTPPVLDSDGSFFLYSKLTVDKSRWQQGNVFSCSVMHEALHNHYTQKSLSLSPGK
B3: 20373-FcDE (Fc fusion)
VHH-Fc chain: QVQLQESGGGLVQAGGSLVLSCAASGSAALIFLMSWYRQAPGKQRELVAEVSRGGSTTYADSVEGRFTISRDNAKNIVDLQMNSLKPEDTAVYYCKADQNYGDSLRSSWGQGTQVTVSSAPELLGGPDVFLFPPKPKDTLMISRTPEVTCVVVDVSHEDPEVKFNWYVDGVEVHNAKTKPREEQYNSTYRVVSVLTVLHQDWLNGKEYKCKVSNKALPAPEEKTISKAKGQPREPQVYTLPPSRDELTKNQVSLTCLVKGFYPSDIAVEWESNGQPENNYKTTPPVLDSDGSFFLYSKLTVDKSRWQQGNVFSCSVMHEALHNHYTQKSLSLSPGK
B4: 20372-FcDE (Fc fusion)
VHH-Fc chain: QVQLQESGGGLVQAGGSLRLSCAASARTESMYAMAWFRQAPGKEREIVAGIIQSGGTTYISDYMKGRFSIDRGNAENTVYLQMDSLKPEDTAVYSCAAKVSSGTPSDIQISQSRWYDHWGQGTQVTVSSAPELLGGPDVFLFPPKPKDTLMISRTPEVTCVVVDVSHEDPEVKFNWYVDGVEVHNAKTKPREEQYNSTYRVVSVLTVLHQDWLNGKEYKCKVSNKALPAPEEKTISKAKGQPREPQVYTLPPSRDELTKNQVSLTCLVKGFYPSDIAVEWESNGQPENNYKTTPPVLDSDGSFFLYSKLTVDKSRWQQGNVFSCSVMHEALHNHYTQKSLSLSPGK
B5: anti-IL-12Rβ2 VHH clone 3CRH28 (clone ID 20380) (VHH, not shown: small tags and cut ends)
VHH: QVQLQESGGGLVQPGGSLTLSCAASGFTFSSNAMSWVRQAPGKGLEWVSSISSGGGTTYYTDSVKGRFTTARDNAKNTLYLRMNSLKPEDTAVYYCSKSSTGSGSRGQGTQVTVSS
notes: periplasmic extract
B6: anti-IL-12Rβ2 VHH clone 3CAH28 (clone ID 20356) (VHH, not shown: small tags and cut ends)
VHH: QVQLQESGGGLVQSGASLRLSCAASERTLSGYAMGWFRQAPGKEREFVAAIRWSGSSTYYAESVEGRFTISRDNAKNTVYLQMNILKPEDTAVYYCAAGSDYADEYDYWGQGTQVTVSS
notes: periplasmic extract
B7: anti-IL-12Rβ2 VHH clone 2CRH62 (clone ID 20368) (VHH, not shown: small tags and cut ends)
VHH: QVQLQESGGGLVQPGGSLRLSCVESGRTFTVYDMGWFRQAPGKEREIVAAISADGATSIYQDSVKGRFTISRDNDAKNTVYLQMNSLKPEDTAVYYCAAGRSLIYNLYRANNTDYWGQGTQVTVSS
notes: periplasmic extract
B8: anti-IL-12Rβ2 VHH clone 3CRHS31 (clone ID 20418) (VHH, not shown: small tags and cut ends)
VHH: QVQLQESGGGLVQAGGSLRLSCAASGFTFSTYAMSWVRQAPGKGLEWVSSVNSGGLSTDYADSVEGRFTISRDDAKNMLFLQMNSLKPEDTARYYCAKYEDCSDYVCDRAGYWGQGTQVTVSS
notes: periplasmic extract
B9: anti-IL-12Rβ2 VHH clone 3CRHS51 (clone ID 20421) (VHH, not shown: small tags and cut ends)
VHH: B8 VHH with A14P, S50A, S85R
notes: periplasmic extract
B10: anti-IL-12Rβ2 VHH clone 3CAHS79 (clone ID 20398) (VHH, not shown: small tags and cut ends)
VHH: QVQLQESGGGLVQPGGSLRLTCVASGFPFSTHAMSWVRQPPGKGREWISAINSGGDSTDYADSVMGRFTISRDNAKNTVYLQMNSLKSEDTAVYYCAKYEDCSDYDCSSRASWGQGTQVTVSS
notes: periplasmic extract
B11: anti-IL-12Rβ2 VHH clone 3CAHS171 (clone ID 20407) (VHH, not shown: small tags and cut ends)
VHH: B10 VHH with V93A
notes: periplasmic extract
B12: anti-IL-12Rβ2 VHH clone 3CAHS41 (clone ID 20394) (VHH, not shown: small tags and cut ends)
VHH: QVQLQESGGGLVQAGDSLRLSCAASGRTFDTYIVGWFRQAPGKEREFVSALSWSDDTTIRDDSLRGRFTISRDNAKNTVYLLMNSLKPEDTAVYYCAAKAKPPAATWSSYRNREWYDYWGQGTQVTVSS
notes: periplasmic extract
B13: anti-IL-12Rβ2 VHH clone 3CAHS180 (clone ID 20410) (VHH, not shown: small tags and cut ends)
VHH: B12 VHH with I70L
notes: periplasmic extract
B14: anti-IL-12Rβ2 VHH clone 3CAHS102 (clone ID 20399) (VHH, not shown: small tags and cut ends)
VHH: QVQLQESGGGLVQPGGSLRLSCAASGSILRINLMGWYRQVPGKQRELVAEMSTGGSTTYVDSVEGRFTISRDNAKNTVYLQMNSLKPEDTAVYYCNAKAWQLGRLENDDWGQGTQVTVSS
notes: periplasmic extract
B15: anti-IL-12Rβ2 VHH clone 3CAH60 (clone ID 20361) (VHH, not shown: small tags and cut ends)
VHH: QVQLQESGGGLVQPGGSLILSCVASGFAMDYLTMGWSREAPRNEREDISCIDTSGRSTDYLDSVKGRFTISRDNAKNTLYLHMNDLKPEDTAEYYCLASTSYCGAGYEYRGQGTQVTVSS
notes: periplasmic extract

molecular target: T1, human IL-12Rβ2 expressed on cells; experiment: cell-based or functional assay

% Specific Cell Lysis at 0.00125 ug/mL [%] | % Specific Cell Lysis at 0.025 ug/mL [%] | % Specific Cell Lysis at 10 ug/mL [%] | % Specific Cell Lysis at 0.5 ug/mL [%] | Binder
52.4 |  |  |  | B1
54 | 52.1 | 66 |  | B2
48.9 | 61.1 | 70.7 | 67.4 | B3
51.1 |  | 69.9 | 66.9 | B4

molecular target: T2, biotinylated recombinant human IL-12Rβ2; experiment: BLI, P.E., off-rate ranking

Response | koff [s⁻¹] | Binder
0.4 | 0.00428 | B5
0.576 | 0.00483 | B6
0.643 | 0.00622 | B7
0.234 | 0.00429 | B8
0.327 | 0.0043 | B9
0.268 | 0.00434 | B10
0.195 | 0.00431 | B11
0.609 | 0.00441 | B12
0.376 | 0.00265 | B13
0.323 | 0.00267 | B14
0.59 | 0.00517 | B15

molecular target: T3, biotinylated recombinant mouse IL-12Rβ2; experiment: ELISA, P.E., biotinylated antigen

ELISA mIL-12RB2/control | Binder
0.975 | B5
0.4 | B6
0.868 | B7
1.16 | B8
0.946 | B9
1.04 | B10
0.961 | B11
1.35 | B12
1.19 | B13
1.02 | B14
1.9 | B15

molecular target: T2, biotinylated recombinant human IL-12Rβ2; experiment: ELISA, P.E., biotinylated antigen

ELISA hIL-12RB2/control | Binder
3.64 | B5
7.57 | B6
3.51 | B7
10.9 | B8
12 | B9
3.71 | B10
3.27 | B11
8.77 | B12
4.78 | B13
3.54 | B14
3.91 | B15

From patent US20260209362A1 (VIB VZW, published 2026)
